Numbering of substitutions follows the chain as printed.

From PMC9876794 (2022) come the findings set out here.

In the assay the target is SARS-CoV-2 spike RBD (WT) (Severe acute respiratory syndrome …, UniProt P0DTC2). In words: ELISA. Also noted: unit not given here.

B1: D142 (antibody, V domains shown)
VH: QVQLVESGGGVVQPGRSLRLSCAASGFTFSSYGMHWVRQAPGKGLEWVAVISYDGSNKYYADSVKGRFTISRDNSKNTLYLQMNSLRAEDTAVYYCAKKPTMYYYDSSGYYYFDYWGQGTLVTVSS
VL: QFVLTQPPSVSGAPGQRVTISCTGSSSNIGAGYDVHWYQQLPGTAPKLLIYGNSNRPSGVPDRFSGSKSGTSASLAITGLQAEDEADYYCQSYDSSLSGYVFGTGTKVTVL
On to B1, for which the binding score is greater than 10000.

B2: D016 (antibody, V domains shown)
VH: EVQLVESGGGLVQPGRSLRLSCAASGFTFDDYAMHWVRQAPGKGLEWVSGISWNSGSIGYADSVKGRFTISRDNAKNSLYLQMNSLRAEDMALYYCAKDAGIAAVNWYFDLWGRGTLVTVSS
VL: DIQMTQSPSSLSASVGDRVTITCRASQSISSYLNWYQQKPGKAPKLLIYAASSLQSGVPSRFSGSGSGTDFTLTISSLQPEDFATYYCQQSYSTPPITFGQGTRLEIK
For the molecule B2, the binding score stood at 5250.

B3: D035 (antibody, V domains shown)
VH: B2 VH with M91T, A100T, G101V, I102A, A103G, A104L, V105P, N106Y
VL: not shown
The molecule B3 returned a binding score greater than 10000.

B4: D131 (antibody, V domains shown)
VH: QVQLVQSGAEVKKPGASVKVSCKASGYTFTSYGISWVRQAPGQGLEWMGWISAYNGNTNYVQKLQGRVTMTTDTSTSTAYMELRSLRSDDTAVYYCARVQYYYGSGSYRSTYYFDYWGQGTLVTVSS
VL: QPVLTQSSSASASLGSSVKLTCTLSSGHSSYIIAWHQQQPGKAPRYLMNLEGSGSYNKGSGVPDRFSGSSSGADRYLTISNLQSEDEADYYCETWDSNIWVFGGGTKLTVL
B4 returned a binding score greater than 10000.

B5: D072 (antibody, V domains shown)
VH: QVQLQQWGAGLLKPSETLSLTCAVYGGSFSGHYWSWIRQSPGKGLEWIGEINHSGDTNYNASLKSRVTISVDTSKNQFSLQMTSVTAADTAVYYCARRRGIVLMRAVDVWGKGTTVTVSS
VL: EIVMTQSPATLSLSPGERATLSCRASQSVSNNYFSWYQQKPGQAPRLLIYGASARATGIPARFSGSGSGTEFTLTISSLQPEDIALYFCQQDFHPYTFGQGTKLEIK
Turning to B5, the binding score was greater than 10000.

B6: C2729 (antibody, V domains shown)
VH: QLQLQESGPGLVKPSETLSLTCTVSGGSISSSSYYWGWIRQPPGKGLEWIGSIYYSGSTYYNPSLKSRVTISVDTSKNQFSLKLSSVTAADTAVYYCARRWIQLWSGFDPWGQGTLVTVSS
VL: DIQLTQSPSFLSASVGDRVTITCRASQGISSYLAWYQQKPGKAPKLLIYAASTLQSGVPSRFSGSGSGTEFTLTISSLQPEDFATYYCQQLNSYSITFGQGTRLEIK
For the molecule B6, the binding score was greater than 10000.

B7: D132 (antibody, V domains shown)
VH: EVQLVESGGGLVQPGRSLRLSCAASGFTFDDYAMHWVRQAPGKGLEWVSGISWNSGSIGYADSVKGRFTISRDNAKNSLYLQMNSLRNDDTALYYCAKGRIGGNYYLLDYWGQGTLVTVSS
VL: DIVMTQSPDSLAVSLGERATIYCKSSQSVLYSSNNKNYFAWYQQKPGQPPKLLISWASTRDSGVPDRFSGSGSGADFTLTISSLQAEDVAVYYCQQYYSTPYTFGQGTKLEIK
The molecule B7 showed a binding score of 9490.

B8: D168 (antibody, V domains shown)
VH: EVQLVESGGGLVKPGGSLRLSCAASGFTFSSYSMNWVRQAPGKGLEWVSSISSSSSYIYYADSVKGRFTISRDNAKNSLYLQMNSLRAEDTAVYYCARDLGTAIVYVREKYYYGMDVWGQGTTVTVSS
VL: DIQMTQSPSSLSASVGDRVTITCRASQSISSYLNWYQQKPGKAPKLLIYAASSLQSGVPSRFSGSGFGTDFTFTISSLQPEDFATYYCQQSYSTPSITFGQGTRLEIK
The molecule B8 displayed a binding score of 4730.

B9: D079 (antibody, V domains shown)
VH: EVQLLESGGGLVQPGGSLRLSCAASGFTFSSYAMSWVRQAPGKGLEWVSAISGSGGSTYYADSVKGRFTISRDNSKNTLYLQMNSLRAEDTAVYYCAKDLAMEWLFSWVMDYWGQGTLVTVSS
VL: QSALTQPASVSGSPGQSITISCTGTSSDVGGYNYVSWYQQHPGKAPKIMIYDVSNRPSGVFNRFFGSKSGNTASLTIFGLQAEDEADYYCSSYTSSSTLGVFGGGTKLTVL
B9 displayed a binding score greater than 10000.

B10: D137 (antibody, V domains shown)
VH: QVQLVQSGAEVKKPGASVKVSCKASGYTFTSYDINWVRQATGQGLEWMGWMNPNSGNTGYAQKFQGRVTMTRNTSISTAYMELSSLRSEDTAVYYCARAYCSGGSCYSQPWGQGTLVTVSS
VL: QSALTQPPSASGSPGQSVTISCTGTSSDVGGYNYVSWYQQHPGKAPKLMIYEVSKRPSGVPDRFSGSKSGNTASLTVSGLQAEDEADYYCSSYAGSNNWVFGGGTKLTVL
Molecule B10 showed a binding score of 395.

B11: D055 (antibody, V domains shown)
VH: EVQLVESGGGLVQPGGSLRLSCAASGFTFSSYDMHWVRQATGKGLEWVSAIGTAGDTYYPGSVKGRFTISRENAKNSLYLQMNSLRAGDTAVYYCARGAMVRGVIMVFDYWGQGTLVTVSS
VL: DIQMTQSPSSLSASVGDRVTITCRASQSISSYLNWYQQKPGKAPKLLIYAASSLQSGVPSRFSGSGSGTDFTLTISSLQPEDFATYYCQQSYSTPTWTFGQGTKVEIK
Molecule B11 had a binding score of 9930.

B12: D073 (antibody, V domains shown)
VH: QLQLQESGPGLVKPSETLSLTCTVSGGSMSSGSYYWGWIRQPPGKGLEWIGSIFYSGSTYYNPSLKSRVTISIDTSKRQFSLNLRSVTAADKAVYYCARQDIMGYSDVWGEGTTVTVSS
VL: EIVLTQSPGTLSLSPRERATLSCRASQSITSTYFAWYQQRPGQAPRLLIYDGSRRATGIPDRFSASGSGTDFTLTISGLEAEDFAVYYCQQYLRLPYTFGQGTKLEIK
For B12, the binding score is greater than 10000.

B13: D028 (antibody, V domains shown)
VH: QVQLVQSGAEVKKPGASVKVSCKASGYTFISYYVHWVRQAPGQGLEWMGIINPSGGSTSYTQKFQGRVTMTRDTSTSTVYMELSSLRFEDTAVYYCATEGGMITENSSLHWGQGTLVTVSS
VL: DIQMTQSPSTLSASVGDRVTITCRASQSISSWLAWYQQKPGKAPKLLIYKASSLESGVPSRFSGSGSGTEFTLAISSLQPDEFATYYCQQYNSYPWTFGQGTKVEIK
In the case of B13, the binding score was greater than 10000.

B14: D030 (antibody, V domains shown)
VH: QVQLVQSGAEVKKPGASVKVSCKASGYTFTSYDINWVRQATGQGLEWMGWMNPNSGNTGYAQKFQGRVTMTRNTSISTAYMELSSLRSEDTAVYYCARDGSGPYDILTGYGMDVWGQGTTVTVSS
VL: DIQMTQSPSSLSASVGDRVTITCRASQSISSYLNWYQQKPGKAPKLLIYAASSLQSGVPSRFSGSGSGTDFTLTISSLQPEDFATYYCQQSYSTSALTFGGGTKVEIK
B14 displayed a binding score greater than 10000.

B15: D033 (antibody, V domains shown)
VH: QVQLVESGGGVVQPGRSLRLSCAASGFTFSYYAMHWVRQAPGKGLEWVAVISYDGINKYYADSVKGRFTFSRDNSKNTLYLQMNSLSAEDTAVYYCARPYCGGDCYRAPDYWGQGTLVTVSS
VL: QSVLTQEPSLTVSPGGTVTLTCGSSTGAVTSSHYPYWFQQKPGQVPRTLIYDTSNKHSWTPARFSGSLLGGKAALTLSGAQPEDEADYYCLLSYSGVRRVFGGGTKLTVL
For B15, the binding score is greater than 10000.

B16: D071 (antibody, V domains shown)
VH: EVQLVESGGGLVQPGRSLRLSCTASGFTFGDYAMSWFRQAPGKGLEWLGFIKSKSYGGTTEYAASVKGRFTISREDSKSIAYLQMNSLKTEDTAVYYCTRTIFGVVHFDYWGQGTLVTVSS
VL: SYVLTQPPSVSVAPGKTARITCERNNIGSKSVHWYQQKPGRAPVLVIYYDSDRPSGIPERFSGSNSENTATLTISRVEAGDEADYYCQVWNSSSDHPVFGGGTKLTVL
As for B16, the binding score was greater than 10000.

B17: C2732 (antibody, V domains shown)
VH: EVQLVESGGGLVQPGRSLRLSCAASGFTFDDYAMHWVRQAPGKGLEWVSGISWNSGSIGYADSVKGRFTISRDNAKNSLYLQMNSLRAEDTALYYCAKDIGRIAEGYGMDVWGQGTTVTVSS
VL: QSALTQPASVSESPGQSITISCTGTSSDIGGYNYVSWYQQHPGKAPKLMIYEVSNRPSGVSNRFSGSKSGNTASLTISGLQAEDEADYYCSSYTSSSTVVFGGGTKLTVL
In turn, B17 had a binding score of 376.

B18: D081 (antibody, V domains shown)
VH: QVQLQESGPGLVKPSQTLSLTCTVSGGSISSGDYYWSWIRQPPGKGLEWIGYIYYSGSTYYNPSLKSRVTISVDTSKNQFSLKLSSVTAADTAVYYCARVAGIVNWFDPWGQGTLVTVSS
VL: NFMLTQPHSVSESPGKTVTISCTGSSGSIASNYVQWYQQRPGSAPTTVIYEDNQRPSGVPDRFSGSIDSSSNSASLTISGLKTEDEADYYCQSYDSSNQVFGGGTKLTVL
For the molecule B18, the binding score is greater than 10000.

B19: C2691 (antibody, V domains shown)
VH: EVQLVESGGGLVQPGRSLRLSCAASGFTFDDYAMHWVRQAPGKGLEWVSGISWNSGSIGYADSVKGRFTISRDNAKNSLYLQMNSLRAEDTALYYCAKDNRLDTMVRGGRVDAFDIWGQGTMVTVSS
VL: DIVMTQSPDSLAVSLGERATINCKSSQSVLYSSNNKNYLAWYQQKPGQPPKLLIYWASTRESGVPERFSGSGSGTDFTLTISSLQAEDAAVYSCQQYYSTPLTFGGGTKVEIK
B19 displayed a binding score greater than 10000.

B20: D054 (antibody, V domains shown)
VH: QVQLVQSGAEVKKPGASVKVSCKASGYTFTSYYMHWVRQAPGQGLEWMGIINPSGGSTSYAQKFQGRVTMTRDTSTSTVYMELSSLRSEDTAVYYCARESGTGFGELPKGGPFDYWGQGTLVTVSS
VL: not shown
Turning to B20, the binding score is greater than 10000.

B21: D160 (antibody, V domains shown)
VH: QVQLVQSGAEVKKPGASVKVSCKASGYTFTTYGFSWVRQAPGQGLEWMGWISGYNGNTHYAQKVQGRVTMTTDTSTTTAYMELRSLTYDDTAVYYCARAGDDEANAFDIWGQGTMVTVSS
VL: DIQMTQSPSTLSASVGDRVTITCRASQTISIWLAWYQQKPGKAPKLLIYKASKIQSGVPSRFSGSESGTEFTLTISSLQPDDFATYYCQQYNSYPLTFGGGTKVESK
For B21, the binding score was 491.

B22: C2694 (antibody, V domains shown)
VH: EVQLVESGGGLVQPGRSLRLSCAASGFTFDDYAMHWVRQAPGKGLEWVSGISWNSGSIGYADSVKGRFTISRDNAKNSLYLQMNSLRAEDTALYYCAKDSLLWYDSSGYYHYYYYGMDVWGQGTTVTVSS
VL: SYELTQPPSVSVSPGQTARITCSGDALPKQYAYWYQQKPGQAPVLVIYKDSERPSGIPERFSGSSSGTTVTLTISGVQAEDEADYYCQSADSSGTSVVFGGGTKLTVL
B22: the binding score was greater than 10000.

B23: D105 (antibody, V domains shown)
VH: QVQLQQWGAGLLKPSETLSLTCAVFGGSFSGYYWSWIRQPPGKGLEWIGEINHSGSTNYNPSLKSRVTLSVDTSKNQFSLELSSVTAADTAVYYCARVGPILFDYWGQGTLVTVSS
VL: QFVLTQPPSVSAAPGQKVTISCSGSSSNIGNNYVSWFQQLPGTAPKLLIYDNNMRPSRIPDRFSGSKSGTSATLGITGLQTGDEADYYCGTWDSSLSSVVFGGGTKLTVL
For B23, the binding score was determined as 1340.

B24: D143 (antibody, V domains shown)
VH: EVQLVESGGGLVQPGGSLRLSCAASGFTFSSYSMNWVRQAPGKGLEWVSYISSSSSTIYYADSVKGRFTISRDNAKNSLYLQMNSLRDEDTAVYYCASHYGAPTSYYYYGMDVWGQGTTVTVSS
VL: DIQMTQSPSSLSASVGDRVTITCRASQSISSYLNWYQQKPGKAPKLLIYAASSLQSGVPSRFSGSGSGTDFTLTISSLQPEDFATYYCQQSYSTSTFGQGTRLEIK
Take B24: the binding score came out at 39.5.

B25: D184 (antibody, V domains shown)
VH: QVQLVQSGAEVKKPGSSVKVSCKASGGTFSSYAISWVRQAPGQGLEWMGGIIPIFGTANYAQKFQGRVTITADESTSTAYMELSSLRSEDTAVYYCARGRGSTYYYYYYMDVWGKGTTVTVSS
VL: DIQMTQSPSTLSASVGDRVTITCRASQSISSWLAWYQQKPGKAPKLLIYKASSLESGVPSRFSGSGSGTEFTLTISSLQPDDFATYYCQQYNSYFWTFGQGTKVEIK
For B25, the binding score was 8050.
